Target: Recombinant Flag-tagged human PRMT5 (Homo sapiens (Human), UniProt O14744)
Test: anti-Flag pulldown with immunoblot

Chain of Recombinant Flag-tagged human PRMT5 (O14744 whole entry): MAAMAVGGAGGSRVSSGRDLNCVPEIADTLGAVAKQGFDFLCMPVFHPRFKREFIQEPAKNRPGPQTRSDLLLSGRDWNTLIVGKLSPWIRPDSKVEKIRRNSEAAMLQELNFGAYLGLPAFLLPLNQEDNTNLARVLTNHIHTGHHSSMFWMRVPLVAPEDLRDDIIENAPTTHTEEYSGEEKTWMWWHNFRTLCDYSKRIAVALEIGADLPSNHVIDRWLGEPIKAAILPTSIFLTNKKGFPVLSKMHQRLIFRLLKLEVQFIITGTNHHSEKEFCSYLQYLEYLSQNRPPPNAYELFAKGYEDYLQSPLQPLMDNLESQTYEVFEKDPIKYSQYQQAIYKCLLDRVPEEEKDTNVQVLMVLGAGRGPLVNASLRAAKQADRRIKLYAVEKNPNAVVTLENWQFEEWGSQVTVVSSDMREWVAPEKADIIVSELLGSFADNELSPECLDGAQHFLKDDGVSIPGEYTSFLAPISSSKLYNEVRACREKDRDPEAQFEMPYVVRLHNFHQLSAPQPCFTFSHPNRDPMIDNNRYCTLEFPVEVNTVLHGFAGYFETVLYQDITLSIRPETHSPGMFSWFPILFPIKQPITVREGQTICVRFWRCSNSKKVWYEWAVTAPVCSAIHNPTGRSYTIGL

binding result: binds
B1: Recombinant Xenopus laevis MEP50 alone (protein)
chain: MSKGSAWGRPVTAPACMEVQIGAVRYRRDGALLLAASSLSSRTWGGSIWVFKDPEGAPNESLCTAGVQTEAGVTDVAWVSEKGILVASDSGAVELWEILEKESLLVNKFAKYEHDDIVKTLSVFSDGTQAVSGGKDFSVKVWDLSQKAVLKSYNAHSSEVNCVAACPGKDTIFLSCGEDGRILLWDTRKPKPATRIDFCASDTIPTSVTWHPEKDDTFACGDETGNVSLVNIKNPDSAQTSAVHSQNITGLAYSYHSSPFLASISEDCTVAVLDADFSEVFRDLSHRDFVTGVAWSPLDHSKFTTVGWDHKVLHHHLPSEGRTENLIATKAED

From article PMC3581573 (2013)
